Experimental data published in PMC7000732, “Bridging non-overlapping reads illuminates high-order epistasis between distal protein sites in a GPCR” (Nature Communications, 2020).
Several values for one entry are separate records, joined by “and”; a condition that tells them apart may be missing. Equal values may be shown once. Read-outs that look alike come from different tables or passages of the source.

Tests used:
[1] = FACS-based screen of A2aR library with deep sequencing (BRIDGE): variant enrichment; format: cell-based, Saccharomyces cerevisiae
[2] = Whole-cell saturation radioligand binding; set-up: species or system Saccharomyces cerevisiae; details: for Kd: 3H-NECA, whole yeast cells, pH 5.8, mean ± SD of three biological replicates, read-out: equilibrium dissociation constant (Kd); for CPM: raw replicate counts, empty vector not subtracted; for fold greater 3H-NECA binding affinity than wild-type receptor: ratio of Kd to wild-type
[3] = Fluorescent ligand binding measured by flow cytometry; set-up: species or system Saccharomyces cerevisiae; details: for fluorescent ligand binding signal / % pop above background / Mean Singlet Fluorescence Intensity (530 nm): replicates; for % pop above background / Mean Singlet Fluorescence Intensity (530 nm): incubated with FITC-APEC
[4] = naive to PS4 library (PS4/naive), high-stringency gating, 10 µM FITC-APEC

| Molecule | Enrichment rate [1, 4] | Kd [2] | CPM ([2]; [3H-NECA] 1.6 nM) | CPM ([2]; [3H-NECA] 3.1 nM) | CPM ([2]; [3H-NECA] 6.3 nM) | CPM ([2]; [3H-NECA] 12.5 nM) | CPM ([2]; [3H-NECA] 25 nM) | CPM ([2]; [3H-NECA] 50 nM) | CPM ([2]; [3H-NECA] 100 nM) | CPM ([2]; [3H-NECA] 200 nM) | CPM ([2]; [3H-NECA] 400 nM) | Fold increase in enrichment rate over WT [1] | fold greater 3H-NECA binding affinity than wild-type receptor [2] | other results |
| --- | --- | --- | --- | --- | --- | --- | --- | --- | --- | --- | --- | --- | --- | --- |
| WT: wild-type human adenosine A2a receptor, decahistidine-tagged, expressed in yeast from centromeric pYC vector [reference compound] | 0.3 | 39.2 ± 4.8 nM | 64 CPM and 47 CPM and 35 CPM | 108 CPM and 89 CPM and 54 CPM | 192 CPM and 223 CPM and 155 CPM | 331 CPM and 408 CPM and 255 CPM | 470 CPM and 533 CPM and 388 CPM | 546 CPM and 694 CPM and 708 CPM | 805 CPM and 900 CPM and 958 CPM | 1026 CPM and 1370 CPM and 1371 CPM | 1047 CPM and 2304 CPM and 1995 CPM | – | – | Enrichment rate ([1]; naive to PS4 population): 0.30 fold; fluorescent ligand binding signal ([3]; [FITC-APEC] 10 nM, Supplementary Figure 1 source data, listed as pYC A2a10H): 101 and 100 and 99; fluorescent ligand binding signal ([3]; [FITC-APEC] 10 nM, Supplementary Figure 4 source data, listed as pYC A2a10H): 104 and 103 and 102; fluorescent ligand binding signal ([3]; [FITC-APEC] 100 nM, Supplementary Figure 1 source data, listed as pYC A2a10H): 111 and 108 and 134; fluorescent ligand binding signal ([3]; [FITC-APEC] 100 nM, Supplementary Figure 4 source data, listed as pYC A2a10H): 114 and 110 and 133; fluorescent ligand binding signal ([3]; [FITC-APEC] 1000 nM, Supplementary Figure 1 source data, listed as pYC A2a10H): 208 and 180 and 189; fluorescent ligand binding signal ([3]; [FITC-APEC] 1000 nM, Supplementary Figure 4 source data, listed as pYC A2a10H): 206 and 184 and 191; fluorescent ligand binding signal ([3]; [FITC-APEC] 10000 nM, Supplementary Figure 1 source data, listed as pYC A2a10H): 370 and 353 and 396; fluorescent ligand binding signal ([3]; [FITC-APEC] 10000 nM, Supplementary Figure 4 source data, listed as pYC A2a10H): 377 and 330 and 373; fluorescent ligand binding signal ([3]; [FITC-APEC] 50000 nM, Supplementary Figure 1 source data, listed as pYC A2a10H): 442 and 457 and 477; fluorescent ligand binding signal ([3]; [FITC-APEC] 50000 nM, Supplementary Figure 4 source data, listed as pYC A2a10H): 354 and 386 and 364 |
| pITy A2a10H: decahistidine-tagged wild-type A2aR expressed in yeast from multi-site-integrating pITy vector | – | – | – | – | – | – | – | – | – | – | – | – | – | % pop above background ([3]; +raffinose): 97.3% and 99.1% and 99.7%; Mean Singlet Fluorescence Intensity (530 nm) ([3]; +raffinose): 1177 a.u. and 1389 a.u. and 1621 a.u.; % pop above background ([3]; -raffinose): 88.4% and 92.7% and 86.6%; Mean Singlet Fluorescence Intensity (530 nm) ([3]; -raffinose): 853 a.u. and 1341 a.u. and 1013 a.u.; fluorescent ligand binding signal ([3]; [FITC-APEC] 10 nM, Supplementary Figure 1 source data): 102 and 103 and 101; fluorescent ligand binding signal ([3]; [FITC-APEC] 100 nM, Supplementary Figure 1 source data): 124 and 112 and 118; fluorescent ligand binding signal ([3]; [FITC-APEC] 1000 nM, Supplementary Figure 1 source data): 357 and 323 and 352; fluorescent ligand binding signal ([3]; [FITC-APEC] 10000 nM, Supplementary Figure 1 source data): 1097 and 999 and 1047; fluorescent ligand binding signal ([3]; [FITC-APEC] 50000 nM, Supplementary Figure 1 source data): 1681 and 1267 and 1322 |
| C28A/C82A/C128A/C185A/C245S/C254A/C394S: inactive A2aR variant that does not bind ligand (protein, UniProt P29274 1-412, looked up, variant C28A C82A C128A C185A C245S C254A C394S) Adenosine receptor A2a: MPIMGSSVYITVELAIAVLAILGNVLVAWAVWLNSNLQNVTNYFVVSLAAADIAVGVLAIPFAITISTGFCAACHGCLFIAAFVLVLTQSSIFSLLAIAIDRYIAIRIPLRYNGLVTGTRAKGIIAIAWVLSFAIGLTPMLGWNNCGQPKEGKNHSQGCGEGQVACLFEDVVPMNYMVYFNFFAAVLVPLLLMLGVYLRIFLAARRQLKQMESQPLPGERARSTLQKEVHAAKSLAIIVGLFALSWLPLHIINAFTFFCPDCSHAPLWLMYLAIVLSHTNSVVNPFIYAYRIREFRQTFRKIIRSHVLRQQEPFKAAGTSARVLAAHGSDGEQVSLRLNGHPPGVWANGSAPHPERRPNGYALGLVSGGSAQESQGNTGLPDVELLSHELKGVSPEPPGLDDPLAQDGAGVS | – | – | – | – | – | – | – | – | – | – | – | – | – | fluorescent ligand binding, result in words ([3]; FITC-APEC, yeast cells): does not bind ligand |
| TSWLH: single-residue mutant Q89S of A2aR, the most abundant variant in PS4 (protein, UniProt P29274 1-412, looked up, variant Q89S) Adenosine receptor A2a: MPIMGSSVYITVELAIAVLAILGNVLVCWAVWLNSNLQNVTNYFVVSLAAADIAVGVLAIPFAITISTGFCAACHGCLFIACFVLVLTSSSIFSLLAIAIDRYIAIRIPLRYNGLVTGTRAKGIIAICWVLSFAIGLTPMLGWNNCGQPKEGKNHSQGCGEGQVACLFEDVVPMNYMVYFNFFACVLVPLLLMLGVYLRIFLAARRQLKQMESQPLPGERARSTLQKEVHAAKSLAIIVGLFALCWLPLHIINCFTFFCPDCSHAPLWLMYLAIVLSHTNSVVNPFIYAYRIREFRQTFRKIIRSHVLRQQEPFKAAGTSARVLAAHGSDGEQVSLRLNGHPPGVWANGSAPHPERRPNGYALGLVSGGSAQESQGNTGLPDVELLSHELKGVCPEPPGLDDPLAQDGAGVS | – | 11.8 ± 1 nM | 269 CPM and 283 CPM and 176 CPM | 574 CPM and 478 CPM and 918 CPM | 877 CPM and 818 CPM and 594 CPM | 1293 CPM and 1161 CPM and 783 CPM | 1556 CPM and 1523 CPM and 1194 CPM | 2099 CPM and 1735 CPM and 1402 CPM | 2533 CPM and 2165 CPM and 1719 CPM | 2889 CPM and 2229 CPM and 2151 CPM | 3382 CPM and 2947 CPM and 2944 CPM | 1121 fold | fourfold | – |
| TGRIA: Variant GRIA (T88/Q89G/W246R/L249I/H250A) of human adenosine A2a receptor (protein, UniProt P29274 1-412, looked up, variant Q89G W246R L249I H250A) Adenosine receptor A2a: MPIMGSSVYITVELAIAVLAILGNVLVCWAVWLNSNLQNVTNYFVVSLAAADIAVGVLAIPFAITISTGFCAACHGCLFIACFVLVLTGSSIFSLLAIAIDRYIAIRIPLRYNGLVTGTRAKGIIAICWVLSFAIGLTPMLGWNNCGQPKEGKNHSQGCGEGQVACLFEDVVPMNYMVYFNFFACVLVPLLLMLGVYLRIFLAARRQLKQMESQPLPGERARSTLQKEVHAAKSLAIIVGLFALCRLPIAIINCFTFFCPDCSHAPLWLMYLAIVLSHTNSVVNPFIYAYRIREFRQTFRKIIRSHVLRQQEPFKAAGTSARVLAAHGSDGEQVSLRLNGHPPGVWANGSAPHPERRPNGYALGLVSGGSAQESQGNTGLPDVELLSHELKGVCPEPPGLDDPLAQDGAGVS | 517 | 10.9 ± 0.8 nM | 148 CPM and 222 CPM and 182 CPM | 317 CPM and 337 CPM and 348 CPM | 477 CPM and 597 CPM and 529 CPM | 612 CPM and 847 CPM and 800 CPM | 815 CPM and 1157 CPM and 1066 CPM | 1152 CPM and 1391 CPM and 1352 CPM | 1488 CPM and 1655 CPM and 1630 CPM | 1857 CPM and 2089 CPM and 2112 CPM | 2326 CPM and 2813 CPM and 3169 CPM | – | fourfold | Fold increase in enrichment rate over WT ([1]; naive to PS4 library, WT rate 0.30): 1722 fold |
| SLNIG: A2aR variant; letters are residues at T88, Q89, W246, L249, H250 (protein, UniProt P29274 1-412, looked up, variant T88S Q89L W246N L249I H250G) Adenosine receptor A2a: MPIMGSSVYITVELAIAVLAILGNVLVCWAVWLNSNLQNVTNYFVVSLAAADIAVGVLAIPFAITISTGFCAACHGCLFIACFVLVLSLSSIFSLLAIAIDRYIAIRIPLRYNGLVTGTRAKGIIAICWVLSFAIGLTPMLGWNNCGQPKEGKNHSQGCGEGQVACLFEDVVPMNYMVYFNFFACVLVPLLLMLGVYLRIFLAARRQLKQMESQPLPGERARSTLQKEVHAAKSLAIIVGLFALCNLPIGIINCFTFFCPDCSHAPLWLMYLAIVLSHTNSVVNPFIYAYRIREFRQTFRKIIRSHVLRQQEPFKAAGTSARVLAAHGSDGEQVSLRLNGHPPGVWANGSAPHPERRPNGYALGLVSGGSAQESQGNTGLPDVELLSHELKGVCPEPPGLDDPLAQDGAGVS | – | 10.7 ± 0.6 nM | 138 CPM and 195 CPM and 220 CPM | 282 CPM and 376 CPM and 382 CPM | 494 CPM and 563 CPM and 618 CPM | 783 CPM and 767 CPM and 883 CPM | 861 CPM and 1199 CPM and 1152 CPM | 1216 CPM and 1410 CPM and 1521 CPM | 1341 CPM and 1416 CPM and 1794 CPM | 1692 CPM and 1849 CPM and 2050 CPM | 2037 CPM and 2595 CPM and 2482 CPM | 2635 fold | – | Enrichment rate [1]: 791 |
